In PMC6791878, “Evaluation of integrin αvβ6 cystine knot PET tracers to detect cancer and idiopathic pulmonary fibrosis” (Nature Communications, 2019):
Where two headings read alike, the source gives them in different places.

Test system: pancreatic, cervical and lung cancer
Settings: for ROI uptake RM (red marrow) / ROI uptake SI (small intestine) / ROI uptake Sk (skin) / ROI uptake Sp (spleen) / ROI uptake St (stomach) / ROI uptake TB (total body) / ROI uptake Tm (thymus) / ROI uptake Tr (thyroid) / ROI uptake ULI (upper large intestine) / ROI uptake Bl (bladder) / ROI uptake Bn (osteogenic cells) / ROI uptake Br (brain) / ROI uptake Brs (breast) / ROI uptake HC (heart contents) / ROI uptake HW (heart wall) / ROI uptake LLI (lower large intestine) / ROI uptake Ln (lung) / ROI uptake Lv (liver) / ROI uptake Ms (muscle) / ROI uptake Pn (pancreas) / ROI uptake Pt (pituitary gland): one patient, Fig 4C
Protocol: The administered dose was 55.5–96.2MBq (1.5–2.6 mCi). The scan (6 bed positions, 2 min bed^−1) covered an area that included the top of the skull to the middle of the femur. OSEM was applied for reconstruction. […] The CT scan (140 kV, 35 mA, pitch of 1:1, layer of 5 mm thickness; layer spacing of 3 mm, 512*512 matrix, field of view of 70 cm) also covered the top of the skull to the middle of the femur. […] Immediately upon completion of the first scan, the second whole-body static PET data was acquired. Sequentially, multiple whole-body static PET scans were acquired, one by one, from 0 to 75 min.
Upon co-registration of the PET and CT images, the CT images were used to determine regions of interest for the organs or tissues reported in the manuscript. These ROIs were applied to the PET images of the brain, pituitary gland, breast, lower and upper large intestine, small intestine, stomach, pancreas, heart wall, liver, lung, muscle, red marrow, bone, skin, and thyroid gland. For high uptake organs such as the kidneys, bladder and for the whole body, threshold-based segmentation of PET images were used to determine a close-fitting ROI around the entire organ or whole body. In order to determine accuracy, these PET-derived ROIs were compared to the CT overlay for a close match.

SMILES: CC[C@H](C)[C@@H]1NC(=O)[C@@H](NC(=O)CNC(=O)CCC(C(=O)O)N2CCN(CC(=O)O)CCN(CC(=O)O)CC2)CSSC[C@@H]2NC(=O)[C@H](C)NC(=O)CNC(=O)[C@@H]3CCCN3C(=O)[C@@H]3CSSC[C@@H](C(=O)NCC(N)=O)NC(=O)[C@H](Cc4ccc(O)cc4)NC(=O)CNC(=O)[C@H](CC(N)=O)NC(=O)CNC(=O)[C@H](CCCNC(=N)N)NC(=O)[C@H](CSSC[C@H](NC(=O)[C@H](CCCNC(=N)N)NC(=O)[C@H](Cc4ccccc4)NC(=O)[C@H](CC(C)C)NC(=O)[C@H](CC(C)C)NC(=O)[C@H]([C@@H](C)O)NC(=O)CNC(=O)[C@H](CC(C)C)NC(=O)[C@H](CC(=O)O)NC(=O)[C@H]([C@@H](C)O)NC(=O)[C@H](CCCNC(=N)N)NC(=O)CNC(=O)[C@H](CC(N)=O)NC(=O)[C@H](CC(C)C)NC1=O)C(=O)N[C@@H](CCCNC(=N)N)C(=O)N[C@@H](CCCNC(=N)N)C(=O)N[C@@H](CC(=O)O)C(=O)N[C@@H](CO)C(=O)N[C@@H](CC(=O)O)C(=O)N3)NC(=O)[C@H]([C@@H](C)CC)NC2=O (some centres unmarked) [[^68Ga]NODAGA-R01-MG, metal not drawn]
- ROI uptake RM (red marrow) (36 min p.i.): 0.2108
- ROI uptake SI (small intestine) (36 min p.i.): 6.296
- ROI uptake Sk (skin) (36 min p.i.): 0.08072
- ROI uptake Sp (spleen) (36 min p.i.): 0.426
- ROI uptake St (stomach) (36 min p.i.): 2.242
- ROI uptake TB (total body) (36 min p.i.): 0.6996
- ROI uptake Tm (thymus) (36 min p.i.): 0.6323
- ROI uptake Tr (thyroid) (36 min p.i.): 0.7534
- ROI uptake ULI (upper large intestine) (36 min p.i.): 1.834
- ROI uptake Bl (bladder) (49 min p.i.): 9.366
- ROI uptake Bn (osteogenic cells) (49 min p.i.): 0.4088
- ROI uptake Br (brain) (49 min p.i.): 0.04004
- ROI uptake Brs (breast) (49 min p.i.): 0.5978
- ROI uptake HC (heart contents) (49 min p.i.): 0.5978
- ROI uptake HW (heart wall) (49 min p.i.): 0.3526
- ROI uptake LLI (lower large intestine) (49 min p.i.): 1.426
- ROI uptake Ln (lung) (49 min p.i.): 0.3066
- ROI uptake Lv (liver) (49 min p.i.): 0.6029
- ROI uptake Ms (muscle) (49 min p.i.): 0.7154
- ROI uptake Pn (pancreas) (49 min p.i.): 0.9657
- ROI uptake Pt (pituitary gland) (49 min p.i.): 2.212
- ROI uptake RM (red marrow) (49 min p.i.): 0.1942
- ROI uptake SI (small intestine) (49 min p.i.): 6.546
- ROI uptake Sk (skin) (49 min p.i.): 0.07665
- ROI uptake Sp (spleen) (49 min p.i.): 0.373
- ROI uptake St (stomach) (49 min p.i.): 2.34
- ROI uptake TB (total body) (49 min p.i.): 0.6949
- ROI uptake Tm (thymus) (49 min p.i.): 0.5876
- ROI uptake Tr (thyroid) (49 min p.i.): 0.5416
- ROI uptake ULI (upper large intestine) (49 min p.i.): 1.661
- ROI uptake Bl (bladder) (61 min p.i.): 9.011
- ROI uptake Bn (osteogenic cells) (61 min p.i.): 0.8028
- ROI uptake Br (brain) (61 min p.i.): 0.04398
- ROI uptake Brs (breast) (61 min p.i.): 0.7155
- ROI uptake HC (heart contents) (61 min p.i.): 0.5817
- ROI uptake HW (heart wall) (61 min p.i.): 0.3897
- ROI uptake LLI (lower large intestine) (61 min p.i.): 1.338
- ROI uptake Ln (lung) (61 min p.i.): 0.3258
- ROI uptake Lv (liver) (61 min p.i.): 0.6399
- ROI uptake Ms (muscle) (61 min p.i.): 0.9889
- ROI uptake Pn (pancreas) (61 min p.i.): 1.129
- ROI uptake Pt (pituitary gland) (61 min p.i.): 2.048
- ROI uptake RM (red marrow) (61 min p.i.): 0.07562
- ROI uptake SI (small intestine) (61 min p.i.): 6.597
- ROI uptake Sk (skin) (61 min p.i.): 0.1047
- ROI uptake Sp (spleen) (61 min p.i.): 0.4654
- ROI uptake St (stomach) (61 min p.i.): 2.513
- ROI uptake TB (total body) (61 min p.i.): 0.5643
- ROI uptake Tm (thymus) (61 min p.i.): 0.5119
- ROI uptake Tr (thyroid) (61 min p.i.): 0.4479
- ROI uptake ULI (upper large intestine) (61 min p.i.): 1.478
- Bl, PET uptake, Average (Average of patients, 29-60 min): 25.3728
- Bn, PET uptake, Average (Average of patients, 29-60 min): 0.4809
- Br, PET uptake, Average (Average of patients, 29-60 min): 0.09236
- Brs, PET uptake, Average (Average of patients, 29-60 min): 0.4271
- CA, PET uptake, Average (Average of patients, 29-60 min): 4.033
- HC, PET uptake, Average (Average of patients, 29-60 min): 0.8404
- HW, PET uptake, Average (Average of patients, 29-60 min): 0.6923
- LLI, PET uptake, Average (Average of patients, 29-60 min): 1.574
- Ln, PET uptake, Average (Average of patients, 29-60 min): 0.4315
- Lv, PET uptake, Average (Average of patients, 29-60 min): 0.7253
- Ms, PET uptake, Average (Average of patients, 29-60 min): 0.5597
- Pn, PET uptake, Average (Average of patients, 29-60 min): 1.617
- Pt, PET uptake, Average (Average of patients, 29-60 min): 3.247
- RM, PET uptake, Average (Average of patients, 29-60 min): 0.2168
- SI, PET uptake, Average (Average of patients, 29-60 min): 7.061
- Sk, PET uptake, Average (Average of patients, 29-60 min): 0.1123
- Sp, PET uptake, Average (Average of patients, 29-60 min): 0.4371
- St, PET uptake, Average (Average of patients, 29-60 min): 8.975
- TB, PET uptake, Average (Average of patients, 29-60 min): 0.841
- Tm, PET uptake, Average (Average of patients, 29-60 min): 0.6358
- Tr, PET uptake, Average (Average of patients, 29-60 min): 1.023
- ULI, PET uptake, Average (Average of patients, 29-60 min): 1.719
- adverse reactions (~2 mCi i.v., ~1 h p.i., lasted about an hour, disappeared without treatment): One patient reported nausea and vertigo
